According to patent publication US20250270343A1 (Alector, published 2025):

Tests used:
[1] = biological target: T1, soluble human GPNMB (recombinant extracellular domain) (human, UniProt Q14956 23-498); assay: SPR Carterra, Ab amine-coupled
T1 construct: also called huGPNMB; recombinant human GPNMB extracellular domain; not shown: C-terminal polyhistidine or Avi-His tag
T1 sequence: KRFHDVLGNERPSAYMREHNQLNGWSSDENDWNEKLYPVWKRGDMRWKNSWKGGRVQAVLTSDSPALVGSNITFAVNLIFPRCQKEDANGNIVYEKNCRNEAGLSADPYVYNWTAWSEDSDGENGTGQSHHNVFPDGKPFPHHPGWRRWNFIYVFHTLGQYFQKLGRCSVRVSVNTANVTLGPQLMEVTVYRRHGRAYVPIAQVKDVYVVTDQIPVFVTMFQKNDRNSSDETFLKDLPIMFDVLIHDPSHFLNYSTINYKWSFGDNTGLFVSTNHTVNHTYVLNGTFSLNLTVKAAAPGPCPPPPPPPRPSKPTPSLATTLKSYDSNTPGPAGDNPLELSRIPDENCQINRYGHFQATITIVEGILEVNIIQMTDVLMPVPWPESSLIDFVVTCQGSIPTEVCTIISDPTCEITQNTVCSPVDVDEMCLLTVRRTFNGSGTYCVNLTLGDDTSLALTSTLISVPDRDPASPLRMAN
Protocol: (§1) Additionally, one of the anti-GPNMB antibodies of the present disclosure was evaluated using a Carterra LSA instrument (Carterra, Salt Lake City, UT). Briefly, the anti-GPNMB antibody was immobilized in duplicate spots onto an HC30M sensor chip (Carterra) by amine coupling according to the instrument manufacturer's recommended protocol. After priming with running buffer (see above) the immobilized antibody was tested for its ability to bind to recombinant human, cynomolgus, and mouse GPNMB. Analytes were diluted to 600 nM in running buffer, then further diluted 3-fold serially to 200 nM, 67 nM, 22.2 nM, 7.4 nM, and 2.5 nM. Analyte at each concentration was injected for five minutes over the entire chip using the single channel flow cell. Dissociation was measured for 5 min, followed by regeneration of the chip with two 30-second injections of 10 mM glycine, pH 2.0. The data were analyzed using the NextGenKIT high-throughput kinetics analysis software from Carterra.

[2] = biological target: T2, soluble cynomolgus GPNMB (recombinant extracellular domain) (cynomolgus, UniProt Q14956 23-499 (human entry), limits assumed); assay: SPR Carterra, Ab amine-coupled
T2 chain: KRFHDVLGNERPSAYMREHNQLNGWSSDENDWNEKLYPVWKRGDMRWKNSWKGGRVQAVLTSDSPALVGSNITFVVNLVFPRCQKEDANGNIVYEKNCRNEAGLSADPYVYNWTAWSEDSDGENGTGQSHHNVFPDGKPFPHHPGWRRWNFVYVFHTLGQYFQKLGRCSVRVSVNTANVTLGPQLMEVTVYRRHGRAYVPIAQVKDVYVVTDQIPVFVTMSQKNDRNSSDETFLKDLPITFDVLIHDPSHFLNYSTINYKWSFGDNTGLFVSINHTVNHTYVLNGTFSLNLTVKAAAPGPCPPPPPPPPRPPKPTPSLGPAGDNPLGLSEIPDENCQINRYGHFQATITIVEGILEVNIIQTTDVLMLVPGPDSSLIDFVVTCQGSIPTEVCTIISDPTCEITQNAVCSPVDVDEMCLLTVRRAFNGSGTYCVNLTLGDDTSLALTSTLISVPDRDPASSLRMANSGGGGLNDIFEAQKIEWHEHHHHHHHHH
Protocol: as §1

[3] = biological target: T3, soluble mouse GPNMB (recombinant extracellular domain) (mouse, UniProt Q99P91 23-502); assay: SPR Carterra, Ab amine-coupled
T3 construct: also called moGPNMB; not shown: C-terminal polyhistidine or Avi-His tag
T3 sequence: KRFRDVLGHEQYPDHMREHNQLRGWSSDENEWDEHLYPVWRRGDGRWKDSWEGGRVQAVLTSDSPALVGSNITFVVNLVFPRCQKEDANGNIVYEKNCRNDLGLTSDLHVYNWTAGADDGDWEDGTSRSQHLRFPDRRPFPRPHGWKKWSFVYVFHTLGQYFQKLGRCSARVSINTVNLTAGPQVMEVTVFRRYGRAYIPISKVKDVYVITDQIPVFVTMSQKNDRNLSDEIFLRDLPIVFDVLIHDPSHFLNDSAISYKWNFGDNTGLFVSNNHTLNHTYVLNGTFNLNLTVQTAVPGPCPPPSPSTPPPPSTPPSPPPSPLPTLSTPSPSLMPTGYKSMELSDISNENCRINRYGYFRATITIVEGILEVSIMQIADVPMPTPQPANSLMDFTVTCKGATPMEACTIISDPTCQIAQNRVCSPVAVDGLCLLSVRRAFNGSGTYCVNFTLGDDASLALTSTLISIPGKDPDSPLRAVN
Protocol: as §1

[4] = biological target: T4, mouse GPNMB endogenously expressed on B16F10 cells (mouse, UniProt Q99P91 23-574); assay: FACS, B16F10 cells
T4 construct: whole, on cells; also called moGPNMB
T4 sequence (looked up): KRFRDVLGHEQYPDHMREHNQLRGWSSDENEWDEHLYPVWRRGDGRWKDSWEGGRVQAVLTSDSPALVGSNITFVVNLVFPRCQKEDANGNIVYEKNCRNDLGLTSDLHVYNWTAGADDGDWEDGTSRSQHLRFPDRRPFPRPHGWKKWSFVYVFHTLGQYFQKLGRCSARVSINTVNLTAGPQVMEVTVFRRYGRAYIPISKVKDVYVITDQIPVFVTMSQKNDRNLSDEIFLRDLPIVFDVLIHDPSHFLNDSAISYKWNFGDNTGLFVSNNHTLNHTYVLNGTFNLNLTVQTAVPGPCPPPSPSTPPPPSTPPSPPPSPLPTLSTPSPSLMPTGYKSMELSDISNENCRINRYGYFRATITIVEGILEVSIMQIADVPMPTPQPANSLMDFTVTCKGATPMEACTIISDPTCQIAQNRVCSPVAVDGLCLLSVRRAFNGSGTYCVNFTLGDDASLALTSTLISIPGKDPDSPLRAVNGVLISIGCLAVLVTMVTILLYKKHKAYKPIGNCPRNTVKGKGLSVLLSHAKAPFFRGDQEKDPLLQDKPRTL
Protocol: Recombinant anti-GPNMB antibodies of the present disclosure were examined for their ability to bind human and/or mouse GPNMB expressed on Freestyle293-huGPNMB+ or B16F10 cells, respectively. B16F10 cells are a murine melanoma cell line from a C57BL/6J mouse that endogenously express high levels of mouse GPNMB. The antibodies were also tested for their ability to bind to a human macrophage cell line (U937 cells) engineered to express human GPNMB. Cells were harvested, plated at 100,000 cells/well in a 96-well round bottom plate, and incubated in 100 μl FACS buffer (PBS containing 2% FBS, 2 mM EDTA) containing anti-GPNMB monoclonal antibodies of the present disclosure for 30 minutes on ice. Cells were then washed and incubated in 100 ul FACS buffer containing 1 μg/ml APC-conjugated anti-human IgG secondary antibody for 30 minutes in ice. Cells were washed twice in cold FACS buffer and acquired on a BD FACS Canto. Data analysis and calculation of MFI values was performed with FlowJo (TreeStar) software version 10.0.7. […]

[5] = biological target: T4, mouse GPNMB endogenously expressed on …; assay: FACS titration, B16F10 cells
Protocol: Cell-based binding measurements were also performed to measure the apparent affinities of anti-GPNMB antibodies of the present disclosure to cell-surface expressed GPNMB. Serial dilutions of the monoclonal anti-GPNMB antibodies were added to 100,000 Freestyle293-huGPNMB+ or B16F10 cells and allowed to achieve binding equilibrium at 4° C. After addition of fluorescently labeled secondary antibody and brief washing steps, MFI values as a function of titrated antibody concentration was recorded via FACS analysis. Curves were fit using nonlinear regression analysis with Graphpad Prism 6 software.

[6] = biological target: T3, soluble mouse GPNMB (recombinant …); assay: SPR Carterra, Ab immobilized
Protocol: Binding kinetics of human anti-GPNMB IgG1 antibodies of the present disclosure to human, cynomolgus, and mouse GPNMB were evaluated using a Carterra LSA instrument (Carterra, Salt Lake City, UT). […] A HC200M sensor chip (Carterra) was activated using the single channel flow cell with a 7-minute injection of a 1:1:1 mixture of 100 mM MES pH 5.5, 100 mM sulfo-NHS, 400 mM EDC (all reconstituted in MES pH 5.5; 100 μl of each mixed in vial immediately before running assay). After switching to the multi-channel array flow cell, the antibodies were injected over the activated chip in a 96-spot array for 15 minutes. The remaining unconjugated active groups on the chip were then blocked by injecting 1M Ethanolamine pH 8.5 (Carterra) for 7 minutes using the single channel flow cell.
After priming with running buffer (HBS-EP+, Teknova) with 0.5 mg/ml BSA (Sigma), the immobilized anti-GPNMB antibodies were tested for their ability to bind to several forms of recombinant GPNMB extracellular domain, including human, cynomolgus, and mouse orthologs as described above. Estimates of affinity were generated by injecting each analyte over the entire antibody array using the single channel flow cell. GPNMB analytes were diluted to 2.5, 7.4, 22, 67, 200, and 600 nM in running buffer, and injected in serial from lowest to highest concentration without regeneration. Two buffer blanks were run between each series (one species per series). Data were processed and analyzed using Kinetics high-throughput kinetics analysis software (Carterra).

[7] = biological target: T5, soluble mouse GPNMB-Fc polypeptide (mouse IgG2A Fc) (mouse, UniProt Q99P91 23-502); assay: FACS, enhancing of moGPNMB-Fc binding to SVEC4-10 cells
T5 construct: extracellular domain; bought (R&D System); also called moGPNMB-Fc; mGPNMB-Fc; not shown: Fc region of mouse IgG2A
T5 sequence (looked up): T3 sequence
Protocol: Purified full-length anti-GPNMB antibodies of the present disclosure were evaluated for their ability to block binding of moGPNMB-Fc to SVEC4-10 cells to determine the ligand blocking potency of each anti-GPNMB monoclonal antibody. Briefly, 2 μg/mL moGPNMB-Fc (mouse IgG2A Fc) diluted in binding buffer was pre-complexed with increasing concentrations of anti-GPNMB antibody of the present disclosure or human IgG1 isotype control antibody in 96-well plates. Subsequently, 100,000 SVEC4-10 cells were added per well and incubated on ice for 30 minutes. Soluble moGPNMB-Fc bound to cell surface was detected with fluorescent anti-mouse IgG2A secondary antibody and measured on FACSCanto. (FIG. 5A and FIG. 5B) IC50 values (for antibodies that block moGPNMB-Fc cell binding) and EC50 values (for antibodies that enhance moGPNMB-Fc cell binding) based on changes in MFI values were calculated (average+standard error) for each anti-GPNMB antibody and listed in Table 6. In Table 6, NA indicates no activity. […] In all cases, certain anti-GPNMB antibodies of the present disclosure blocked soluble GPNMB binding to cells, while other anti-GPNMB antibodies of the present disclosure enhanced soluble GPNMB binding to cells.

[8] = biological target: T6, soluble mouse GPNMB-Fc polypeptide (Fc of human IgG1 or mouse IgG2A, not specified for the assay) (mouse, UniProt Q99P91 23-502); assay: FACS, Fab2 blocking moGPNMB-Fc binding to SVEC4-10 cells
T6 construct: extracellular domain; also called moGPNMB-Fc; mGPNMB; not shown: Fc region of human IgG1 or mouse IgG2A; in the Fab2 assay detected with anti-human IgG1 secondary antibody
T6 sequence (looked up): T3 sequence
Protocol: (§2) Purified recombinant Fab2 fragments of select anti-GPNMB antibodies of the present disclosure were produced through transient transfection and purified. Briefly, 2 ug/mL soluble mouse or human GPNMB-Fc diluted in binding buffer was pre-complexed with increasing concentrations of anti-GPNMB Fab2 fragments in 96-well plates. Subsequently, 100,000 SVEC4-10 cells were added per well and incubated on ice for 30 minutes. Soluble moGPNMB-Fc or huGPNMB-Fc bound to cell surface was detected with fluorescent anti-human IgG1 secondary antibody and measured on FACSCanto. IC50 and EC50 values based on changes in MFI values were calculated for each antibody.

[9] = biological target: T7, soluble human GPNMB-Fc polypeptide (human, UniProt Q14956 23-498, limits assumed); assay: FACS, Fab2 enhancing huGPNMB-Fc binding to SVEC4-10 cells
T7 construct: also called huGPNMB-Fc; not shown: Fc domain
T7 sequence (looked up): T1 sequence
Protocol: as §2

B1: anti-GPNMB antibody GPN-81 (antibody, V domains shown)
VH: QVQLQESGPGLVKPSETLSLTCTVSGISITTGNYRWSWIRQPPGKGLEWIGYIYYSGTITYNPSLKSRVTITRDTSKNQFSLELSSVTAADTAVYYCARDLTHWYFDVWGQGTLVTVSS
VL: DIVMTQSPDSLAVSLGERATINCKSSESVDYYGIGFLNWYQQKPGQPPKLLIYAASTQGSGVPDRFSGSGSGTDFTLTISSLQAEDVAVYYCQQSKEVPPTFGGGTKVEIK
notes: humanized GPN-52
[1]
  Kd: 135 nM
  koff: 0.0098 s⁻¹
  kon: 76000 M⁻¹ s⁻¹
[2]
  Kd: 107 nM
  koff: 0.01 s⁻¹
  kon: 97000 M⁻¹ s⁻¹
[3]
  Kd: 12 nM
  koff: 0.0019 s⁻¹
  kon: 180000 M⁻¹ s⁻¹

B2: anti-GPNMB antibody GPN-33 (antibody, human IgG1, V domains shown)
VH: EVQLVESGGSLVQPGGSLKLSCVASGYTFSNYWMDWVRQTPGKSLEWIGEINTDGSKTNYAPSIKDRFTISRDNAKSTLYLQMSNVKADDTAIYYCTRGPGAWGQGTSVTVSS
VL: DIVMTQTPLSLSVAIGQSASISCKSSQSLKFSDGKTYLNWVFQSPGQSPKRLIYQVSKLDSGVPDRFSGTGSETDFILKISRVEAEDLGVYYCCQGSYSPWTIGGGTKLELK
notes: chimeric
[4]
  MFI fold over background: 20.9 fold
[5]
  EC50: 17.8 nM
[6]
  Kd: < 0.3 nM
  koff: < 1e-05 s⁻¹
  kon: 40000 M⁻¹ s⁻¹
[7]
  EC50: 0.79 nM

B3: recombinant Fab2 fragment of anti-GPNMB antibody GPN-61 (other)
VH: DVQLQESGPGLVKPSQTVFLTCTVTGISITTGNYRWSWIRQFPGNKLEWIGYIYYSGTITYNPSLTSRTTITRDTPKNQFFLEMSSLTAEDTATYFCARDLRHWYFDVWGTGTTVTVSS
VL: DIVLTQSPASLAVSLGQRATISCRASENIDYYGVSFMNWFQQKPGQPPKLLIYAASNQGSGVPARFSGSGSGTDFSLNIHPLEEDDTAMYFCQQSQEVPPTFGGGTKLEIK
notes: also called GPN-61 Fab2
[8]
  IC50: 1.56 nM
[9]
  EC50: 9.05 nM
